Source: publication PMC11525196 (Nature, 2024)
Read-outs that look alike come from different tables or passages of the source.

Columns and labels:
cryo-EM structure [1] = target: the molecule itself; assay: cryo-EM structure
cryo-EM structure [2] = target: the molecule itself; assay: cryo-EM structure; remark: listed apart in the source
LYCHOS(N145A)-Flag-NLuc = target: T1, LYCHOS(N145A)-Flag-NLuc (human, UniProt Q7Z3F1 1-870, N145A); assay: FRET or BRET
T1 sequence: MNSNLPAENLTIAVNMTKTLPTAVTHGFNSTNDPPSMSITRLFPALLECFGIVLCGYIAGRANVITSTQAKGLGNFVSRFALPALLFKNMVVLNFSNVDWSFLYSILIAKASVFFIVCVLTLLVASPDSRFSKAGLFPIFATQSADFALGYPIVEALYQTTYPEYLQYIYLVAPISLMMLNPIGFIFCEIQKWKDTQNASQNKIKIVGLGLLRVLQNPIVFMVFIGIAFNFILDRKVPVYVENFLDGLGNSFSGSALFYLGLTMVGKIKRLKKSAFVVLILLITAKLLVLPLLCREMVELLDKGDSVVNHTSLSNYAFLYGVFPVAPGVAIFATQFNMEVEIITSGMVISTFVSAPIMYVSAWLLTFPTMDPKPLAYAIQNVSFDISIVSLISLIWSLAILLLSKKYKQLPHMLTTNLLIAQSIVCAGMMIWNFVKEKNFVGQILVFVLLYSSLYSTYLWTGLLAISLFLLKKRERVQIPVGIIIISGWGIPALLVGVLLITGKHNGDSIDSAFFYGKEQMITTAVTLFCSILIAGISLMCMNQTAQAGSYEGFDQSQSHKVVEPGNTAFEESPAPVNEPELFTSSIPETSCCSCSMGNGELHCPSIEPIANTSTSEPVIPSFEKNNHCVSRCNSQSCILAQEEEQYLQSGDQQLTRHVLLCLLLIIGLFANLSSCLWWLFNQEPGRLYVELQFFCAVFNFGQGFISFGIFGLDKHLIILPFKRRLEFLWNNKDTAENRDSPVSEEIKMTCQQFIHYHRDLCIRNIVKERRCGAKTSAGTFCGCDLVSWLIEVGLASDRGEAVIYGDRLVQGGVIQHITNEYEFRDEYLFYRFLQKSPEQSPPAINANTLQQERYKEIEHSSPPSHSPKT

[3] = target: T2, LYCHOS(F352A/W678R/N145A)-Flag-NLuc (human, UniProt Q7Z3F1 1-870, F352A | W678R | N145A); assay: FRET or BRET
T2 sequence: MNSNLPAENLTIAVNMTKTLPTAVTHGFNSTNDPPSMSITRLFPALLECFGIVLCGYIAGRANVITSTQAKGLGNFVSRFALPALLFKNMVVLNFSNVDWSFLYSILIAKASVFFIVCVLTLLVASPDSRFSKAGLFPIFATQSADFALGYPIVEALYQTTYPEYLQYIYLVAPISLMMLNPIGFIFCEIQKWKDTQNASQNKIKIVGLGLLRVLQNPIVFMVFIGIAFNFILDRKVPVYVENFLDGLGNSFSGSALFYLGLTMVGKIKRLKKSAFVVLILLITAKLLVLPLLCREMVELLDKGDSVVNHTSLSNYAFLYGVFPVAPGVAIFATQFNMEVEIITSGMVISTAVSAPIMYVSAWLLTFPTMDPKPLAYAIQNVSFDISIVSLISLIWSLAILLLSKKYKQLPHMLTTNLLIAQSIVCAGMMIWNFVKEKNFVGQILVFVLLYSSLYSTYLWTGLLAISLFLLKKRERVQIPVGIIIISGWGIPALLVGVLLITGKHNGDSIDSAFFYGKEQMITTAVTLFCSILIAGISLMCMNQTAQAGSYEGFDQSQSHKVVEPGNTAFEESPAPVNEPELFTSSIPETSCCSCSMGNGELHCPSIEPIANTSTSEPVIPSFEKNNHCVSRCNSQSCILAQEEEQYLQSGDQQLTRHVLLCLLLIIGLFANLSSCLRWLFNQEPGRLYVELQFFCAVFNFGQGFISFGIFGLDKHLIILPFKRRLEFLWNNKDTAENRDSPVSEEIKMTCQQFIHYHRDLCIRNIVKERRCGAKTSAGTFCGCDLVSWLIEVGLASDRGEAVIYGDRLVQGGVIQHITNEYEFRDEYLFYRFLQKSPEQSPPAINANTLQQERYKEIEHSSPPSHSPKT

B1: LYCHOS (GPR155), wild type, C-terminal Flag tag, expressed in Sf9 cells (natural protein, human)
chain: MNSNLPAENLTIAVNMTKTLPTAVTHGFNSTNDPPSMSITRLFPALLECFGIVLCGYIAGRANVITSTQAKGLGNFVSRFALPALLFKNMVVLNFSNVDWSFLYSILIAKASVFFIVCVLTLLVASPDSRFSKAGLFPIFATQSNDFALGYPIVEALYQTTYPEYLQYIYLVAPISLMMLNPIGFIFCEIQKWKDTQNASQNKIKIVGLGLLRVLQNPIVFMVFIGIAFNFILDRKVPVYVENFLDGLGNSFSGSALFYLGLTMVGKIKRLKKSAFVVLILLITAKLLVLPLLCREMVELLDKGDSVVNHTSLSNYAFLYGVFPVAPGVAIFATQFNMEVEIITSGMVISTFVSAPIMYVSAWLLTFPTMDPKPLAYAIQNVSFDISIVSLISLIWSLAILLLSKKYKQLPHMLTTNLLIAQSIVCAGMMIWNFVKEKNFVGQILVFVLLYSSLYSTYLWTGLLAISLFLLKKRERVQIPVGIIIISGWGIPALLVGVLLITGKHNGDSIDSAFFYGKEQMITTAVTLFCSILIAGISLMCMNQTAQAGSYEGFDQSQSHKVVEPGNTAFEESPAPVNEPELFTSSIPETSCCSCSMGNGELHCPSIEPIANTSTSEPVIPSFEKNNHCVSRCNSQSCILAQEEEQYLQSGDQQLTRHVLLCLLLIIGLFANLSSCLWWLFNQEPGRLYVELQFFCAVFNFGQGFISFGIFGLDKHLIILPFKRRLEFLWNNKDTAENRDSPVSEEIKMTCQQFIHYHRDLCIRNIVKERRCGAKTSAGTFCGCDLVSWLIEVGLASDRGEAVIYGDRLVQGGVIQHITNEYEFRDEYLFYRFLQKSPEQSPPAINANTLQQERYKEIEHSSPPSHSPKT
Q: B1 was tested. Which “stoichiometry N” value (cryo-EM structure [1]) did it give?
A: 2

B2: LYCHOS (GPR155), wild type, C-terminal Flag tag, expressed in Expi293F cells (natural protein, human)
chain: MNSNLPAENLTIAVNMTKTLPTAVTHGFNSTNDPPSMSITRLFPALLECFGIVLCGYIAGRANVITSTQAKGLGNFVSRFALPALLFKNMVVLNFSNVDWSFLYSILIAKASVFFIVCVLTLLVASPDSRFSKAGLFPIFATQSNDFALGYPIVEALYQTTYPEYLQYIYLVAPISLMMLNPIGFIFCEIQKWKDTQNASQNKIKIVGLGLLRVLQNPIVFMVFIGIAFNFILDRKVPVYVENFLDGLGNSFSGSALFYLGLTMVGKIKRLKKSAFVVLILLITAKLLVLPLLCREMVELLDKGDSVVNHTSLSNYAFLYGVFPVAPGVAIFATQFNMEVEIITSGMVISTFVSAPIMYVSAWLLTFPTMDPKPLAYAIQNVSFDISIVSLISLIWSLAILLLSKKYKQLPHMLTTNLLIAQSIVCAGMMIWNFVKEKNFVGQILVFVLLYSSLYSTYLWTGLLAISLFLLKKRERVQIPVGIIIISGWGIPALLVGVLLITGKHNGDSIDSAFFYGKEQMITTAVTLFCSILIAGISLMCMNQTAQAGSYEGFDQSQSHKVVEPGNTAFEESPAPVNEPELFTSSIPETSCCSCSMGNGELHCPSIEPIANTSTSEPVIPSFEKNNHCVSRCNSQSCILAQEEEQYLQSGDQQLTRHVLLCLLLIIGLFANLSSCLWWLFNQEPGRLYVELQFFCAVFNFGQGFISFGIFGLDKHLIILPFKRRLEFLWNNKDTAENRDSPVSEEIKMTCQQFIHYHRDLCIRNIVKERRCGAKTSAGTFCGCDLVSWLIEVGLASDRGEAVIYGDRLVQGGVIQHITNEYEFRDEYLFYRFLQKSPEQSPPAINANTLQQERYKEIEHSSPPSHSPKT
Q: Which “stoichiometry N” value (cryo-EM structure [2]) does the source give for B2 here?
A: 2

B3: HA-cpmCitrine-NPRL2 (natural protein, UniProt Q8WTW4 1-380, looked up)
chain: MGSGCRIECIFFSEFHPTLGPKITYQVPEDFISRELFDTVQVYIITKPELQNKLITVTAMEKKLIGCPVCIEHKKYSRNALLFNLGFVCDAQAKTCALEPIVKKLAGYLTTLELESSFVSMEESKQKLVPIMTILLEELNASGRCTLPIDESNTIHLKVIEQRPDPPVAQEYDVPVFTKDKEDFFNSQWDLTTQQILPYIDGFRHIQKISAEADVELNLVRIAIQNLLYYGVVTLVSILQYSNVYCPTPKVQDLVDDKSLQEACLSYVTKQGHKRASLRDVFQLYCSLSPGTTVRDLIGRHPQQLQHVDERKLIQFGLMKNLIRRLQKYPVRVTREEQSHPARLYTGCHSYDEICCKTGMSYHELDERLENDPNIIICWK
Q: Which BRET50 (LYCHOS(N145A)-Flag-NLuc) does the source give for B3 here?
A: 0.23 ± 0.06

Q: What about the BRET50 [3] of the same binder?
A: 0.03 ± 0.01
